Assay results taken from US20250197501A1.

Tests used:
[1] = target: human B7-H3 on the surface of human cancer cells (human) (UniProt Q5ZPR3); assay: flow cytometry, A549 cells
[2] = target: human B7-H3 on the surface of human cancer cells (human) (UniProt Q5ZPR3); assay: flow cytometry, Huh7 cells
[3] = target: human B7-H3 on the surface of human cancer cells (human) (UniProt Q5ZPR3); assay: flow cytometry, PC-3 cells
[4] = target: human B7-H3 on the surface of human cancer cells (human) (UniProt Q5ZPR3); assay: flow cytometry, DU145 cells
[5] = target: human B7-H3 on the surface of human cancer cells (human) (UniProt Q5ZPR3); assay: flow cytometry, H1299 cells
[6] = target: human B7-H3 on the surface of human cancer cells (human) (UniProt Q5ZPR3); assay: flow cytometry, HA59T cells
[7] = target: human B7-H3 on the surface of human cancer cells (human) (UniProt Q5ZPR3); assay: flow cytometry, HepG2 cells
[8] = target: human B7-H3 on the surface of human cancer cells (human) (UniProt Q5ZPR3); assay: flow cytometry, LNCaP cells
[9] = target: human B7-H3 on the surface of human cancer cells (human) (UniProt Q5ZPR3); assay: flow cytometry, CAL 27 cells
[10] = target: human B7-H3 on the surface of human cancer cells (human) (UniProt Q5ZPR3); assay: flow cytometry, OECM-1 cells
[11] = target: human B7-H3 on the surface of human cancer cells (human) (UniProt Q5ZPR3); assay: flow cytometry, NCI-H520 cells
[12] = target: human B7-H3 on the surface of human cancer cells (human) (UniProt Q5ZPR3); assay: flow cytometry, Detroit 562 cells

Chain of human B7-H3 on the surface of human cancer cells (human) (Q5ZPR3 29-534 limits assumed): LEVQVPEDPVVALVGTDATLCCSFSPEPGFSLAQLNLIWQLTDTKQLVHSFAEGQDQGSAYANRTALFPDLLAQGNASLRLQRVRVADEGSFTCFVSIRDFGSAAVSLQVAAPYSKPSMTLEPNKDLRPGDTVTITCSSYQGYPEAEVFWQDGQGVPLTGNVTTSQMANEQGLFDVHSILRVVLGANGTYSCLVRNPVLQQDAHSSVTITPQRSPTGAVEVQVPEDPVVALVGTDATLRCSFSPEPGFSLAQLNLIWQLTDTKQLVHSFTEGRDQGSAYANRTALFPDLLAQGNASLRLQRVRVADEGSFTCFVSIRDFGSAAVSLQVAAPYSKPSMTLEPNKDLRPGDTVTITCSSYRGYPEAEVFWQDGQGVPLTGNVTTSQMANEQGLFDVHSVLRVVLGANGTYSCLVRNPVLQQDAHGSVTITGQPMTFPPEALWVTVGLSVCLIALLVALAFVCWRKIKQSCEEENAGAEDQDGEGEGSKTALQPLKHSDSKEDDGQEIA

MFI value [1]: < 600 MFI
MFI value [2]: < 600 MFI
MFI value [3]: < 600 MFI
MFI value [4]: < 600 MFI
MFI value [5]: < 600 MFI
MFI value [6]: < 600 MFI
MFI value [7]: < 600 MFI
MFI value [8]: < 600 MFI
MFI value [9]: < 600 MFI
MFI value [10]: < 600 MFI
MFI value [11]: < 600 MFI
MFI value [12]: < 600 MFI
Substance: IgG (isotype control antibody)
